{"source": "patent US20150246959A1", "target": "MART-1 presented by HLA-A*0201 on 624 mel-CIITA cells (human)", "assay": "cell-based or functional assay"}
{"substance": "F5 (anti-MART-1) TCR", "values": [{"measurement": "IFN-gamma (pg/ml); Donor 1; 624-CIITA", "result": 1480, "unit": "pg/mL"}, {"measurement": "IFN-gamma (pg/ml); Donor 2; 624-CIITA", "result": 1440, "unit": "pg/mL"}]}
